From the supplement of paper PMC10065799, “High-throughput profiling of sequence recognition by tyrosine kinases and SH2 domains using bacterial peptide display” (eLife, 2023)

Legend:
SHP2-C SH2 = assay: SH2 binding enrichment of the phosphorylated peptide, bacterial display (enrichment ratio); higher = better substrate or ligand; peptides without Tyr show the background
Grb2 SH2 = Grb2 SH2 (UniProt P62993); assay: as above
c-Src SH2 = assay: as above
Jak2 = Jak2 (UniProt O60674); assay: phosphorylation enrichment, bacterial display (enrichment ratio); higher = better substrate or ligand; peptides without Tyr show the background
FGFR3 = FGFR3 (UniProt P22607); assay: as above
Sequence of FGFR3 (P22607 whole entry, looked up): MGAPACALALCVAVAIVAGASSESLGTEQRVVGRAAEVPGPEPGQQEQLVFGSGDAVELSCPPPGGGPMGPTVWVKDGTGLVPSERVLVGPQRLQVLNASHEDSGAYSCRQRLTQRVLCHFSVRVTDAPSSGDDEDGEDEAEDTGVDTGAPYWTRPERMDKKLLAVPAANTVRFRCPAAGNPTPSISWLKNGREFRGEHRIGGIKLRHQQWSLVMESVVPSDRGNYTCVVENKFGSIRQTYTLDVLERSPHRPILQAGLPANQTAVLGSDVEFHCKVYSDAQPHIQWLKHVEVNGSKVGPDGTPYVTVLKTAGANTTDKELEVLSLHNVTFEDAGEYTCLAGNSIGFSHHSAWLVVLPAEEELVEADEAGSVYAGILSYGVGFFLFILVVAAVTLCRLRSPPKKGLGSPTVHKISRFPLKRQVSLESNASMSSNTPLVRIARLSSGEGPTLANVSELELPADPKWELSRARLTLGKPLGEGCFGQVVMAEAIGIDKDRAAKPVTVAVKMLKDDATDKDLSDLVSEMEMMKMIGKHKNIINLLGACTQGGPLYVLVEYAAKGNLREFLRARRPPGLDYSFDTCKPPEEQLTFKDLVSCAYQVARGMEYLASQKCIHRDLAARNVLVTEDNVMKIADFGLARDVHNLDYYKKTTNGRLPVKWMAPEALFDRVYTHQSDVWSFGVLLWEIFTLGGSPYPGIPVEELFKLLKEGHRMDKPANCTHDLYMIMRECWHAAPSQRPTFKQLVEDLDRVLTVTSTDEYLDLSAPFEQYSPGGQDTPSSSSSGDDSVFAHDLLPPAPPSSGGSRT

MERTK = MERTK (UniProt Q12866); assay: as above
AncSZ = assay: as above
c-Src = assay: as above
Fyn = Fyn (UniProt P06241); assay: as above
Sequence of Fyn (P06241 whole entry, looked up): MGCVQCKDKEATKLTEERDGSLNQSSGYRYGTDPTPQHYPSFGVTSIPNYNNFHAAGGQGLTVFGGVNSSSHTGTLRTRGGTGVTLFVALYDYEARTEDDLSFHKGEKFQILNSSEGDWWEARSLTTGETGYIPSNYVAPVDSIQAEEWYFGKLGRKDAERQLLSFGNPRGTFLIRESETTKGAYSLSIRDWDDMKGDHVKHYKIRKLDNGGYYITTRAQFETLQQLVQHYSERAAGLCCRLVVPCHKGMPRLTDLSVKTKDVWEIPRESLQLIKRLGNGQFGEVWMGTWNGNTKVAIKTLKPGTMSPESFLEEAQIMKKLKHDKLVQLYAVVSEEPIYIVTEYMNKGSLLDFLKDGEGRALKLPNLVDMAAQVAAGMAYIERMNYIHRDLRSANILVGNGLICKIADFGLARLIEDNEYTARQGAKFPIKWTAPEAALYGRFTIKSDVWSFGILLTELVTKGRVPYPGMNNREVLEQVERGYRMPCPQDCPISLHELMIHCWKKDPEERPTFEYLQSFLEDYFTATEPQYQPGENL

EPHB2 = EPHB2 (UniProt P29323); assay: as above
Sequence of EPHB2 (P29323 whole entry, looked up): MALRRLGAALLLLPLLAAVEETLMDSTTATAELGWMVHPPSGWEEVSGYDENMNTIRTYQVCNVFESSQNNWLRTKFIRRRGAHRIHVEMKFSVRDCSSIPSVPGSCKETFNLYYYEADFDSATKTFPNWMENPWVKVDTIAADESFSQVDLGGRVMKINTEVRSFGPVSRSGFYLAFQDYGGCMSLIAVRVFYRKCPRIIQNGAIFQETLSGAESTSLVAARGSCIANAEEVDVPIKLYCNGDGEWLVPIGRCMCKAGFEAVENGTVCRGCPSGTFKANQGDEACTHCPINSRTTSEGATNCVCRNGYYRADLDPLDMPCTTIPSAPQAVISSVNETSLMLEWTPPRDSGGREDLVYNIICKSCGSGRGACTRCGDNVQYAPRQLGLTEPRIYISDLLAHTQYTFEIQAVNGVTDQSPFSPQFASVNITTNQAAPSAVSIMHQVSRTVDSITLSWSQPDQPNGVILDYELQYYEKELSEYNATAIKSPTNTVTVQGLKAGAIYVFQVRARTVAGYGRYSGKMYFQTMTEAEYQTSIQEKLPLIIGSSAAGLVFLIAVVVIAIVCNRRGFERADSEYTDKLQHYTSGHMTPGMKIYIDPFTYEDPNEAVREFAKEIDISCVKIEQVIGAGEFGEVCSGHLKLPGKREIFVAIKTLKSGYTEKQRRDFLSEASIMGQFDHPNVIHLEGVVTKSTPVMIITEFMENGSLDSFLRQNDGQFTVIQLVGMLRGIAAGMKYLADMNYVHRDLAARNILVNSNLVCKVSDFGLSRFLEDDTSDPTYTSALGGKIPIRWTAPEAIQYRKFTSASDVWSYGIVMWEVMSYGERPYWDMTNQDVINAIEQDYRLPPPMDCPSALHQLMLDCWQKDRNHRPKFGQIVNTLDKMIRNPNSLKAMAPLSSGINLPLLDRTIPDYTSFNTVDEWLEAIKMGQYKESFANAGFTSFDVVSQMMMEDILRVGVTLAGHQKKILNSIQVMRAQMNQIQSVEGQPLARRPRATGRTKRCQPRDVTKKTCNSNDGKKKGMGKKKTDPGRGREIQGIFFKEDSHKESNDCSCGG

c-Abl (mouse) = assay: as above
Fes = Fes (UniProt P07332); assay: as above
Hck = Hck (UniProt P08631); assay: as above
Sequence of Hck (P08631 whole entry, looked up): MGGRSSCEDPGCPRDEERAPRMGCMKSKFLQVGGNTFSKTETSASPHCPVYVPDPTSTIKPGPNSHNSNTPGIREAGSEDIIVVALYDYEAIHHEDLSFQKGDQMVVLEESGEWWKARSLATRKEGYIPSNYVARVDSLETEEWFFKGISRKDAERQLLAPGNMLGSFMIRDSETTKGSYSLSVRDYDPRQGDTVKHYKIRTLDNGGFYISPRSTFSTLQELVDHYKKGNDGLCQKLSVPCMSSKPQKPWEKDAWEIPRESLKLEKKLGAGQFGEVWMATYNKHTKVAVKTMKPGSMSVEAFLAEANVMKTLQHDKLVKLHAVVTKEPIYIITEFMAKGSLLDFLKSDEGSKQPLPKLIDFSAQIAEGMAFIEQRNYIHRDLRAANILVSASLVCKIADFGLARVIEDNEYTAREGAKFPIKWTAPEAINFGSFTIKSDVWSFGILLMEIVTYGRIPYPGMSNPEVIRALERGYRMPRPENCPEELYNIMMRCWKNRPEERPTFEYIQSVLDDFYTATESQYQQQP

Fer (mouse) = assay: as above
FGFR1 = FGFR1 (UniProt P11362); assay: as above
Sequence of FGFR1 (P11362 whole entry, looked up): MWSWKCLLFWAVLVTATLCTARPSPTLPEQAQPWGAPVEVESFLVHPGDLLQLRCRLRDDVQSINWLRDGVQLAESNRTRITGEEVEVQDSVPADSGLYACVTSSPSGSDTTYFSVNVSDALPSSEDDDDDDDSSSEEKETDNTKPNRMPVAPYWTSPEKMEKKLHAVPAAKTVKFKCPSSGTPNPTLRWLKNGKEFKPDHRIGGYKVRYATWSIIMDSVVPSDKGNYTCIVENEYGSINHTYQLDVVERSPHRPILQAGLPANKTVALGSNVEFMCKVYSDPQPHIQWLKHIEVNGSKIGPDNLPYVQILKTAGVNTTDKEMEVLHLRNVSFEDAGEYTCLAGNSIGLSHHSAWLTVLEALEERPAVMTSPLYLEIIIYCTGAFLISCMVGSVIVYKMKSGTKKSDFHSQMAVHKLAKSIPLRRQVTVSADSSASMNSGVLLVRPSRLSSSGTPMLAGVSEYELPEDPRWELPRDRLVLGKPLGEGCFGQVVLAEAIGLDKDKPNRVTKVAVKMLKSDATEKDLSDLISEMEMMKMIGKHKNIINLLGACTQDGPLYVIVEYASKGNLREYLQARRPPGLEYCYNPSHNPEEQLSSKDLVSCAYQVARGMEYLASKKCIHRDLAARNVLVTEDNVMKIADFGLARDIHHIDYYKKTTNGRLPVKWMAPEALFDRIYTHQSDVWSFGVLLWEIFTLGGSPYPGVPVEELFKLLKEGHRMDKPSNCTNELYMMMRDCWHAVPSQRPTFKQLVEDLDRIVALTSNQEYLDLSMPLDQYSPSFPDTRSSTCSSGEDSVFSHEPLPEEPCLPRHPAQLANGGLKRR

EPHB1 = EPHB1 (UniProt P54762); assay: as above
Sequence of EPHB1 (P54762 whole entry, looked up, the tested form may be a part): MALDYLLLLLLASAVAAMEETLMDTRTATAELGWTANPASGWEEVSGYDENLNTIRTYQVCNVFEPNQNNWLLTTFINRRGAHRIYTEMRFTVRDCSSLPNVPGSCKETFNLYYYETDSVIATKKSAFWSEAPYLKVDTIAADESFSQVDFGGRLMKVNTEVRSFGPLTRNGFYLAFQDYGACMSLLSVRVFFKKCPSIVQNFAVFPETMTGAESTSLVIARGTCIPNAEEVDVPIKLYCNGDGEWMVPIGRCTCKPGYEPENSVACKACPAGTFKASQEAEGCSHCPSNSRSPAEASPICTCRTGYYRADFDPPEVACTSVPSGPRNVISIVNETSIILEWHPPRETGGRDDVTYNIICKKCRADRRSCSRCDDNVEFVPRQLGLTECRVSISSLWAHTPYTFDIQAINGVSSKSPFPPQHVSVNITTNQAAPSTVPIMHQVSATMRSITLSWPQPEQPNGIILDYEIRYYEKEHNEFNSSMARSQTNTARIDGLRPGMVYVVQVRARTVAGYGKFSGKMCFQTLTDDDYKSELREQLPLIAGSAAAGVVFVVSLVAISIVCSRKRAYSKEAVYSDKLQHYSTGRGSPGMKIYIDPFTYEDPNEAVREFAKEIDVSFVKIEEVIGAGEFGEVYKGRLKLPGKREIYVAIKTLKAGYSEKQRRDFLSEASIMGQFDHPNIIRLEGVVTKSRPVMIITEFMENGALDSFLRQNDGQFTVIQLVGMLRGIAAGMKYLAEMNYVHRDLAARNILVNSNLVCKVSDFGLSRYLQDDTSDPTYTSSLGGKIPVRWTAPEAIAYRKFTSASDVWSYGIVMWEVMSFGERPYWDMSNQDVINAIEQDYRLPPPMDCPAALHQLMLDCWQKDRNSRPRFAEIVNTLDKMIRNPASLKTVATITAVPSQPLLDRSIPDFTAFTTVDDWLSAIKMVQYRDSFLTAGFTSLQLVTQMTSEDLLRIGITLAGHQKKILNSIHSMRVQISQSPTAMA
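For SH2 binding enrichment of the phosphorylated peptide, bacterial display in this document: peptide library displayed on the E. coli surface as eCPX fusions, selected cells deep-sequenced, score is each peptide's frequency after selection divided by its frequency in the input.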
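For phosphorylation enrichment, bacterial display in this document: 11-residue human phosphosite peptides and single-mutation variants displayed on the E. coli surface, counted by deep sequencing, each peptide's frequency after selection divided by its frequency in the unselected input library; frequency after pTyr selection over input frequency; kinase dosed for 20-30% of maximal phosphorylation in three min.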

Sequence of Grb2 SH2 (P62993 whole entry, looked up): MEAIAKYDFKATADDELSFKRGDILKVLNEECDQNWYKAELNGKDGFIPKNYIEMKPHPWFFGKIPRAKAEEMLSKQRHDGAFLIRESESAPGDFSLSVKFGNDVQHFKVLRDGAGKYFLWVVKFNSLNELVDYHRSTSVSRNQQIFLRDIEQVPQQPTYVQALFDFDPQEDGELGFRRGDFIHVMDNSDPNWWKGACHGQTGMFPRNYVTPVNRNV

Row | Sequence | SH2 binding enrichment (SHP2-C SH2) | SH2 binding enrichment (Grb2 SH2) | SH2 binding enrichment (c-Src SH2) | phosphorylation enrichment (Jak2) | phosphorylation enrichment (FGFR3) | phosphorylation enrichment (MERTK) | phosphorylation enrichment (AncSZ) | phosphorylation enrichment (c-Src) | phosphorylation enrichment (Fyn) | phosphorylation enrichment (EPHB2) | phosphorylation enrichment (c-Abl (mouse)) | phosphorylation enrichment (Fes) | phosphorylation enrichment (Hck) | phosphorylation enrichment (Fer (mouse)) | phosphorylation enrichment (FGFR1) | phosphorylation enrichment (EPHB1)
1 | FNSLPYQVPTS [CALCOCO2_Y358] | 0.871 | 1.12 | 0.843 | 0.611 | 0.578 | 1.34 | 0.942 | 0.561 | 0.467 | 0.504 | 2.56 | 0.63 | 0.56 | 1.36 | 0.431 | 0.464
2 | FPPDGYSRHCE [CTNND1_Y213_Y217C_YF] | 0.706 | 0.985 | 0.617 | 0.741 | 0.661 | 0.383 | 0.784 | 0.376 | 0.431 | 0.542 | 0.584 | 0.904 | 0.473 | 0.485 | 0.477 | 0.565
3 | FPPDGYSRHFE [CTNND1_Y213_YF] | 0.738 | 0.818 | 0.424 | 0.62 | 0.603 | 0.372 | 0.606 | 0.472 | 0.435 | 0.373 | 0.493 | 0.676 | 0.408 | 0.349 | 0.398 | 0.363
4 | FPPISYLNAIS [MVD_Y276] | 0.771 | 0.668 | 0.491 | 0.51 | 0.522 | 0.49 | 0.813 | 0.466 | 0.488 | 0.472 | 0.664 | 0.675 | 0.465 | 0.408 | 0.473 | 0.383
5 | FQEKGYNKEPR [CHRND_Y38_L42P] | 0.981 | 1 | 0.67 | 0.691 | 0.569 | 0.644 | 0.895 | 0.57 | 0.649 | 0.627 | 0.912 | 0.868 | 0.655 | 0.571 | 0.587 | 0.738
6 | FQGRRYDCDCD [CRYGS_Y21] | 0.687 | 0.926 | 0.571 | 0.751 | 0.497 | 0.529 | 0.875 | 0.471 | 0.428 | 0.383 | 0.647 | 0.936 | 0.5 | 0.368 | 0.478 | 0.373
7 | FQNSLYAPDYS [FAM92A_Y226_R222Q] | 1.17 | 1.2 | 0.628 | 0.945 | 0.926 | 5.57 | 1.1 | 1.42 | 1.07 | 2.45 | 0.618 | 1.07 | 1.46 | 1.6 | 0.781 | 2.48
8 | FRDALYKFIVD [PHEX_Y250_M253I_YF] | 1.02 | 1.02 | 1.04 | 0.919 | 0.748 | 0.902 | 1.02 | 0.546 | 0.508 | 0.489 | 0.809 | 1.32 | 0.56 | 0.479 | 0.44 | 0.644
9 | FRDALYKFMVD [PHEX_Y250_YF] | 0.956 | 0.897 | 0.77 | 1.23 | 0.962 | 0.763 | 1.15 | 0.582 | 0.525 | 0.602 | 0.834 | 1.37 | 0.559 | 0.676 | 0.626 | 0.768
10 | FRNSLYAPDYS [FAM92A_Y226] | 0.754 | 0.79 | 0.568 | 0.58 | 0.619 | 4.83 | 0.723 | 0.779 | 0.734 | 0.775 | 0.493 | 0.725 | 0.88 | 0.555 | 0.66 | 1.23
11 | FRRITYFNWRH [PDE6B_Y556_H557Y_YF] | 1.99 | 0.821 | 0.363 | 0.852 | 0.476 | 0.615 | 0.817 | 0.673 | 0.607 | 0.625 | 0.573 | 0.8 | 0.832 | 0.423 | 0.553 | 0.626
12 | FRTPGYREVVI [TNS2_Y673_A670T_YF] | 0.901 | 1.35 | 0.607 | 0.615 | 0.6 | 0.546 | 0.703 | 0.504 | 0.411 | 0.446 | 0.597 | 0.814 | 0.43 | 0.473 | 0.45 | 0.418
13 | FSLIHYAGIVD [MYH7_Y582] | 19 | 1.45 | 5.22 | 0.765 | 0.714 | 0.339 | 0.997 | 0.343 | 0.408 | 0.648 | 0.609 | 0.963 | 0.458 | 0.387 | 0.405 | 0.503
14 | FSLIHYASIVD [MYH7_Y582_G584S] | 37.2 | 1.08 | 7.83 | 1.13 | 1.01 | 0.475 | 1.07 | 0.442 | 0.488 | 0.692 | 0.847 | 1.29 | 0.575 | 0.714 | 0.479 | 0.83
15 | FSPCDYQPCLA [TNS1_Y798_Y796C_YF] | 0.843 | 0.883 | 0.837 | 1.05 | 1.58 | 0.49 | 1.84 | 1.42 | 0.581 | 6.05 | 0.996 | 1.11 | 0.659 | 0.539 | 2.38 | 11.6
16 | FSPFDYQPCLA [TNS1_Y798_YF] | 0.657 | 0.756 | 0.496 | 1.21 | 0.978 | 0.538 | 1.39 | 0.57 | 0.589 | 0.715 | 1.04 | 1.44 | 0.66 | 0.643 | 1.01 | 0.775
17 | FSQETYYRVSN [ABCD1_Y180_Q178E] | 0.628 | 0.841 | 0.654 | 6.03 | 3.85 | 3.78 | 1.26 | 4.41 | 1.77 | 2.73 | 1.03 | 0.812 | 4.2 | 0.492 | 4.96 | 4.43

Row | Sequence | SH2 binding enrichment (SHP2-C SH2) | SH2 binding enrichment (Grb2 SH2) | SH2 binding enrichment (c-Src SH2) | phosphorylation enrichment (Jak2) | phosphorylation enrichment (FGFR3) | phosphorylation enrichment (MERTK) | phosphorylation enrichment (AncSZ) | phosphorylation enrichment (c-Src) | phosphorylation enrichment (Fyn) | phosphorylation enrichment (EPHB2) | phosphorylation enrichment (c-Abl (mouse)) | phosphorylation enrichment (Fes) | phosphorylation enrichment (Hck) | phosphorylation enrichment (Fer (mouse)) | phosphorylation enrichment (FGFR1) | phosphorylation enrichment (EPHB1)
18 | FSQQTYYPVSN [ABCD1_Y180_R182P] | 0.818 | 0.938 | 0.877 | 7.07 | 6.85 | 7.46 | 0.805 | 4.37 | 2.76 | 3.55 | 0.697 | 0.647 | 5.05 | 0.983 | 9.03 | 4.58
19 | FSVDGYDSSVR [KCNQ1_Y461] | 0.727 | 0.948 | 0.688 | 0.672 | 0.53 | 0.311 | 0.693 | 0.37 | 0.461 | 0.513 | 0.648 | 0.773 | 0.393 | 0.36 | 0.427 | 0.519
20 | FYDANCDGKEY [MAPRE2_Y162_Y162C] | 0.641 | 1.03 | 0.617 | 1.13 | 0.922 | 0.539 | 1.21 | 0.642 | 0.612 | 0.682 | 0.81 | 1.4 | 0.563 | 0.527 | 0.497 | 0.651
21 | GAAMLYFPSVS [GPR143_Y177_YF] | 0.895 | 0.871 | 0.503 | 1.36 | 0.736 | 0.732 | 0.613 | 0.56 | 0.445 | 0.423 | 0.535 | 0.764 | 0.512 | 0.437 | 0.66 | 0.465
22 | GDEVEYMSVSF [GCLC_Y53_L55S] | 0.623 | 0.736 | 0.376 | 1.11 | 1.17 | 0.418 | 1.56 | 1.49 | 1.41 | 0.832 | 0.846 | 1.16 | 1.26 | 0.972 | 1.01 | 0.561
23 | GDGRFYMKEAI [PGM1_Y66] | 0.658 | 0.642 | 0.561 | 1.03 | 0.682 | 0.311 | 0.875 | 0.38 | 0.45 | 0.613 | 0.709 | 1.11 | 0.454 | 0.549 | 0.52 | 0.552
24 | GEDDVYDSVPG [FGR_opt_2018] | 0.623 | 0.85 | 0.587 | 0.946 | 0.783 | 0.544 | 1.39 | 0.933 | 1.59 | 0.762 | 0.617 | 1.2 | 1.37 | 0.861 | 0.676 | 0.683
25 | GENTMYAQVFN [LY9_Y603] | 10.1 | 0.751 | 1.84 | 0.803 | 0.561 | 2.18 | 0.912 | 2.38 | 2.5 | 0.787 | 0.958 | 0.968 | 3.32 | 5.6 | 0.56 | 1.47
26 | GESQGYDIMEA [MSH2_Y863_P868A] | 0.876 | 0.778 | 4.32 | 0.744 | 0.546 | 0.42 | 0.85 | 0.417 | 0.456 | 0.484 | 0.577 | 0.883 | 0.492 | 0.463 | 0.536 | 0.469
27 | GFFDLYGGEKF [PTPN11_Y66_D61G_YF] | 0.832 | 0.995 | 0.564 | 0.914 | 0.575 | 0.504 | 0.906 | 2.7 | 2.13 | 0.858 | 0.767 | 1.05 | 3.85 | 0.72 | 0.484 | 0.603
28 | GFPVRYTDVSN [DNMT3B_Y815_H814R] | 1.38 | 0.96 | 1.24 | 0.712 | 0.531 | 0.466 | 0.606 | 0.448 | 0.423 | 0.441 | 0.529 | 0.665 | 0.451 | 0.398 | 0.457 | 0.678
29 | GFVEDYRPPFF [ACVRL1_Y421_I417F_YF] | 0.675 | 0.784 | 0.398 | 0.879 | 0.6 | 0.428 | 0.944 | 0.501 | 0.442 | 0.444 | 0.868 | 0.987 | 0.525 | 0.411 | 0.537 | 0.504
30 | GGDAVYTNGTI [RFX2_Y82_A86T] | 0.597 | 0.91 | 0.434 | 0.667 | 0.613 | 0.391 | 0.778 | 1.32 | 1.17 | 0.488 | 0.74 | 0.836 | 1.19 | 0.464 | 0.392 | 1.39
31 | GGQSVYHVHLH [HINT1_Y109] | 0.904 | 1.19 | 0.897 | 0.629 | 0.532 | 0.434 | 0.619 | 1.01 | 0.865 | 0.487 | 0.581 | 0.77 | 0.686 | 0.455 | 0.495 | 0.476
32 | GGQSVYHVNLH [HINT1_Y109_H112N] | 0.663 | 0.698 | 0.491 | 0.491 | 0.376 | 0.387 | 0.583 | 1.03 | 1.01 | 0.364 | 0.491 | 0.617 | 0.583 | 0.337 | 0.429 | 0.495
33 | GGSDRYGSLRP [MYLK_Y846] | 0.562 | 0.997 | 0.428 | 0.716 | 0.407 | 0.37 | 0.494 | 0.452 | 0.385 | 0.418 | 0.495 | 0.61 | 0.339 | 0.332 | 0.425 | 0.385
